From patent US20220064286A1 (Genentech, published 2022)
Residue numbers refer to the chain shown, from its start. Numbers in names are those of the source.

T1: human TIGIT protein (human, UniProt Q495A1 22-141, limits assumed)
T1 construct: Recombinant protein (Genentech) used in ELISA screening and as SPR analyte; also called TIGIT antigen
T1 sequence: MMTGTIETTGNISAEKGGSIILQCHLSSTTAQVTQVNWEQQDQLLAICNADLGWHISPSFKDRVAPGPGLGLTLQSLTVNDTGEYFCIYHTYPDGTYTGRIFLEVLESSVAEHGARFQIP

B1: h7E7.L1H3 (antibody, V domains shown)
VH: EVQLVQSGAEVKKPGASVKVSCKASGYTFTEYSIYWVRQAPGQRLEIMGRIDPKNGRTYYVDKFKNRATLTADTSASTAYMELSSLRSEDTAVYFCTRIYGFYFDFWGQGTLVTVSS
VL: DIQLTQSPSFLSASVGDRVTITCKGSQNVNKYLVWYQQKPGKAPKLLIYNTDNLQSGIPSRFSGSGSGTEYTLTISSLQPEDFATYFCYQYNNGFTFGQGTKVEIK
notes: VH: I48M against h7E7.L1H1; FR/HVR pieces
B2: h15C8.L5aH9a (antibody, V domains shown)
VH: B1 VH with Y32H, V37L, Y60F, L70I, A72T, F95Y, T97A, Y100D
VL: B1 VL with N50S, I58V, F87Y
notes: Final humanized 15C8; keeps rat VH I47, L37, A67, T71 and VL Y71; FR/HVR pieces
B3: h15C8.L1H5 (antibody, V domains shown)
VH: B1 VH with Y32H, V37L, M48I, Y60F, A68V, A72T, T97A, Y100D
VL: B1 VL with N50S
notes: VH: A67V against h15C8.L1H1; FR/HVR pieces
B4: h15C8.L1H4 (antibody, V domains shown)
VH: B1 VH with Y32H, V37L, Y60F, A72T, T97A, Y100D
VL: B1 VL with N50S
notes: VH: I48M against h15C8.L1H1; FR/HVR pieces
B5: h15C8.L1H8 (antibody, V domains shown)
VH: B1 VH with Y32H, V37L, M48I, Y60F, A72T, F95Y, T97A, Y100D
VL: B1 VL with N50S
notes: VH: F91Y against h15C8.L1H1; FR/HVR pieces
B6: h7E7.L1H5 (antibody, V domains shown)
VH: B1 VH with M48I, L70I
VL: B1 VL
notes: VH: L69I (printed L691) against h7E7.L1H1; FR/HVR pieces
B7: h15C8.L5H1 (antibody, V domains shown)
VH: B1 VH with Y32H, V37L, M48I, Y60F, A72T, T97A, Y100D
VL: B1 VL with N50S, I58V, Y71F, F87Y
notes: VL: I58V, Y71F, F87Y against h15C8.L1H1; FR/HVR pieces
B8: h15C8.L4H1 (antibody, V domains shown)
VH: B1 VH with Y32H, V37L, M48I, Y60F, A72T, T97A, Y100D
VL: B1 VL with N50S, F87Y
notes: VL: F87Y against h15C8.L1H1; FR/HVR pieces
B9: h15C8.L1H6 (antibody, V domains shown)
VH: B1 VH with Y32H, V37L, M48I, Y60F, L70I, A72T, T97A, Y100D
VL: B1 VL with N50S
notes: VH: L69I (printed L691) against h15C8.L1H1; FR/HVR pieces
B10: h7E7.L2H1 (antibody, V domains shown)
VH: B1 VH with M48I
VL: B1 VL with I58V
notes: VL: I58V against h7E7.L1H1; FR/HVR pieces
B11: h15C8.L1H2 (antibody, V domains shown)
VH: B1 VH with Y32H, M48I, Y60F, A72T, T97A, Y100D
VL: B1 VL with N50S
notes: VH: L37V against h15C8.L1H1; FR/HVR pieces
B12: h7E7.L1H7 (antibody, V domains shown)
VH: B1 VH with M48I, F95Y
VL: B1 VL
notes: VH: F91Y against h7E7.L1H1; FR/HVR pieces
B13: h15C8.L3H1 (antibody, V domains shown)
VH: B1 VH with Y32H, V37L, M48I, Y60F, A72T, T97A, Y100D
VL: B1 VL with N50S, Y71F
notes: VL: Y71F against h15C8.L1H1; FR/HVR pieces
B14: h7E7.L3H1 (antibody, V domains shown)
VH: B1 VH with M48I
VL: B1 VL with Y71F
notes: VL: Y71F against h7E7.L1H1; FR/HVR pieces
B15: h7E7.L1H6 (antibody, V domains shown)
VH: B1 VH with M48I, A72R
VL: B1 VL
notes: VH: A71R against h7E7.L1H1; FR/HVR pieces
B16: h7E7.L1H8 (antibody, V domains shown)
VH: B1 VH with M48I, T97A
VL: B1 VL
notes: VH: T93A against h7E7.L1H1; FR/HVR pieces
B17: h7E7.L1H4 (antibody, V domains shown)
VH: B1 VH with M48I, A68V
VL: B1 VL
notes: VH: A67V against h7E7.L1H1; FR/HVR pieces
B18: h15C8.L1H7 (antibody, V domains shown)
VH: B1 VH with Y32H, V37L, M48I, Y60F, A72R, T97A, Y100D
VL: B1 VL with N50S
notes: VH: T71R against h15C8.L1H1; FR/HVR pieces
B19: h7E7.L4H1 (antibody, V domains shown)
VH: B1 VH with M48I
VL: B1 VL with F87Y
notes: VL: F87Y against h7E7.L1H1; FR/HVR pieces
B20: h15C8.L2H1 (antibody, V domains shown)
VH: B1 VH with Y32H, V37L, M48I, Y60F, A72T, T97A, Y100D
VL: B1 VL with N50S, I58V
notes: VL: I58V against h15C8.L1H1; FR/HVR pieces
B21: h7E7.L5H1 (antibody, V domains shown)
VH: B1 VH with M48I
VL: B1 VL with I58V, Y71F, F87Y
notes: VL: I58V, Y71F, F87Y against h7E7.L1H1; FR/HVR pieces

biological target: T1, human TIGIT protein; assay: SPR, captured mAb
Method: (§1) Briefly, a series S CM5 biosensor chip was activated with N-ethyl-N′-(3-dimethylaminopropyl)-carbodiimide hydrochloride (EDC) and N-hydroxysuccinimide (NHS) reagents according to the supplier's (GE Healthcare Biosciences, Piscataway, N.J.) instructions, and a human antibody capture kit was applied to couple goat anti-human Fc IgGs in order to achieve approximately 10,000 response units (RU) on each flow cell, followed by blocking un-reacted groups with 1M ethanolamine.
(§2) (flow rate: 30 μl/min) with no regeneration between injections. The sensorgrams were recorded and evaluated by BIAcore™ T200 Evaluation Software (version 2.0) after subtraction of reference cell signal. Association rates (kₒₙ) and dissociation rates (koff) were calculated using a simple one-to-one Langmuir binding model. The equilibrium dissociation constant (KD) was calculated as the ratio koff/kₒₙ.
(§3) The first humanized versions, h6B2, L1H1, h10A5.L1H1, h7E7, L1H1, and h15C8.L1H1, which contain both rat CDRs and framework residues at Vernier positions, and the fully humanized versions, h6B2.L2H5, h10A5.L4H4, h7E7.L5H9, and h15C8.L5H9, which contain only rat CDRs were subject to BIAcore affinity measurement by comparison with original rat antibodies, rat6B2, rat10A5, rat7E7 and rat 15C8. For binding affinity determinations of TIGIT antibodies against human TIGIT, cynomolgus monkey TIGIT and human alanine-scanned TIGIT mutants by single-cycle kinetics, Surface Plasmon Resonance (SRP) measurement with a BIACORE™-T200 instrument was used, as described above.

| Binder | Kd | koff | kon |
| --- | --- | --- | --- |
| B1 | 0.38 nM | 0.00107 s⁻¹ | 2.82e+06 M⁻¹ s⁻¹ |
| B2 | 0.38 nM | 0.000421 s⁻¹ | 1.12e+06 M⁻¹ s⁻¹ |
| B3 | 0.71 nM | 0.000567 s⁻¹ | 798000 M⁻¹ s⁻¹ |
| B4 | 0.59 nM | 0.000498 s⁻¹ | 841000 M⁻¹ s⁻¹ |
| B5 | 0.61 nM | 0.000381 s⁻¹ | 620000 M⁻¹ s⁻¹ |
| B6 | 0.4 nM | 0.00129 s⁻¹ | 3.24e+06 M⁻¹ s⁻¹ |
| B7 | 0.83 nM | 0.000562 s⁻¹ | 674000 M⁻¹ s⁻¹ |
| B8 | 0.64 nM | 0.000611 s⁻¹ | 955000 M⁻¹ s⁻¹ |
| B9 | 0.55 nM | 0.000756 s⁻¹ | 1.38e+06 M⁻¹ s⁻¹ |
| B10 | 0.24 nM | 0.000504 s⁻¹ | 2.06e+06 M⁻¹ s⁻¹ |
| B11 | 1.03 nM | 0.00107 s⁻¹ | 1.04e+06 M⁻¹ s⁻¹ |
| B12 | 0.31 nM | 0.000849 s⁻¹ | 2.74e+06 M⁻¹ s⁻¹ |
| B13 | 0.84 nM | 0.000533 s⁻¹ | 631000 M⁻¹ s⁻¹ |
| B14 | 0.24 nM | 0.000218 s⁻¹ | 920000 M⁻¹ s⁻¹ |
| B15 | 0.35 nM | 0.000648 s⁻¹ | 1.85e+06 M⁻¹ s⁻¹ |
| B16 | 0.36 nM | 0.00101 s⁻¹ | 2.78e+06 M⁻¹ s⁻¹ |
| B17 | 0.27 nM | 0.000749 s⁻¹ | 2.79e+06 M⁻¹ s⁻¹ |
| B18 | 0.98 nM | 0.000597 s⁻¹ | 610000 M⁻¹ s⁻¹ |
| B19 | 0.27 nM | 0.000796 s⁻¹ | 2.95e+06 M⁻¹ s⁻¹ |
| B20 | 0.66 nM | 0.000506 s⁻¹ | 771000 M⁻¹ s⁻¹ |
| B21 | 0.32 nM | 0.00104 s⁻¹ | 3.21e+06 M⁻¹ s⁻¹ |

biological target: cynomolgus monkey (cyno) TIGIT protein (cynomolgus monkey, UniProt A0A7N9I9V4 89-209); assay: SPR, captured mAb
Sequence (A0A7N9I9V4 entry or part of it): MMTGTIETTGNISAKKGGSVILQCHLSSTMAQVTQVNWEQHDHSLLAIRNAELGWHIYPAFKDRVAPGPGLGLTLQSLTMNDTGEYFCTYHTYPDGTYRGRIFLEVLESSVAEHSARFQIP
Method: as §1, §2, §3

| Binder | Kd | koff | kon |
| --- | --- | --- | --- |
| B1 | 0.42 nM | 0.000381 s⁻¹ | 908000 M⁻¹ s⁻¹ |
| B2 | 1.03 nM | 0.000613 s⁻¹ | 596000 M⁻¹ s⁻¹ |
| B3 | 1.15 nM | 0.000558 s⁻¹ | 484000 M⁻¹ s⁻¹ |
| B4 | 1.05 nM | 0.000558 s⁻¹ | 532000 M⁻¹ s⁻¹ |
| B5 | 0.41 nM | 0.000119 s⁻¹ | 291000 M⁻¹ s⁻¹ |
| B6 | 0.4 nM | 0.000359 s⁻¹ | 898000 M⁻¹ s⁻¹ |
| B7 | 2.68 nM | 0.000752 s⁻¹ | 281000 M⁻¹ s⁻¹ |
| B8 | 1.15 nM | 0.000559 s⁻¹ | 485000 M⁻¹ s⁻¹ |
| B9 | 0.84 nM | 0.000556 s⁻¹ | 663000 M⁻¹ s⁻¹ |
| B10 | 0.36 nM | 0.000179 s⁻¹ | 493000 M⁻¹ s⁻¹ |
| B11 | 2.1 nM | 0.000806 s⁻¹ | 382000 M⁻¹ s⁻¹ |
| B12 | 0.43 nM | 0.000286 s⁻¹ | 664000 M⁻¹ s⁻¹ |
| B13 | 1.75 nM | 0.000588 s⁻¹ | 336000 M⁻¹ s⁻¹ |
| B14 | 0.95 nM | 0.00122 s⁻¹ | 1.28e+06 M⁻¹ s⁻¹ |
| B15 | 0.44 nM | 0.000284 s⁻¹ | 641000 M⁻¹ s⁻¹ |
| B16 | 0.39 nM | 0.000331 s⁻¹ | 845000 M⁻¹ s⁻¹ |
| B17 | 0.4 nM | 0.000243 s⁻¹ | 601000 M⁻¹ s⁻¹ |
| B18 | 0.94 nM | 0.000206 s⁻¹ | 219000 M⁻¹ s⁻¹ |
| B19 | 0.44 nM | 0.000274 s⁻¹ | 629000 M⁻¹ s⁻¹ |
| B20 | 1 nM | 0.000502 s⁻¹ | 502000 M⁻¹ s⁻¹ |
| B21 | 0.56 nM | 0.000324 s⁻¹ | 575000 M⁻¹ s⁻¹ |
